Measured values as given in patent publication US5162221A (Forschungszentrum Juelich GmbH, priority 1989, dated 1992).

What was measured:
[1] = system: O=C(COP(=O)(O)O)[C@@H](O)[C@H](O)[C@H](O)COP(=O)(O)O; experiment: purified protein, by the assay type; settings: other: cleavage of F-1,6-BP to DHAP and glyceraldehyde 3-phosphate, 37° C., pH 7.5
[2] = target: fructose-1,6-bisphosphate aldolase (F-1,6-BP aldolase) from Staphylococcus carnosus, class I, purified (Staphylococcus carnosus, UniProt Q07159); settings: read-out: Km for F-1-P; cleavage of F-1-P to DHAP and glyceraldehyde; 37° C., pH 7.5
Experimental: Purified aldolase (40 μg/ml) was used for characterizing the enzyme, and 120 μg/ml were used for molecular weight determination.

Chain of fructose-1,6-bisphosphate aldolase (F-1,6-BP aldolase) from Staphylococcus carnosus, class I, purified (Q07159 whole entry): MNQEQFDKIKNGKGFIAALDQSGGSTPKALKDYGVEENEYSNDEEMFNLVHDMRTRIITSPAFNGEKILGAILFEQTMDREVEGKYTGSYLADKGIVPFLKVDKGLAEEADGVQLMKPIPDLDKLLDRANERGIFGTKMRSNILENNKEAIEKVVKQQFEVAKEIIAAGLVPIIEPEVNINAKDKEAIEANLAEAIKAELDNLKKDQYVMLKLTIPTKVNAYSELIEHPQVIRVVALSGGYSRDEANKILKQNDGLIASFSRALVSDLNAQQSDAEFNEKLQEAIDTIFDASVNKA

Row | Compound | Km [1] | Km [2]
1 | fructose-1,6-bisphosphate aldolase (F-1,6-BP aldolase) from Staphylococcus carnosus, class I, purified (Staphylococcus carnosus subsp. carnosus TM300) | 0.022 mM | 
2 | O=C(COP(=O)(O)O)[C@@H](O)[C@H](O)[C@H](O)CO [F-1-P] |  | 18.8 mM
